The record followed here is article PMC10507018, “Structure of human drug transporters OATP1B1 and OATP1B3” (Nature Communications, 2023).

The target of assay [1] is T1, Human OATP1B1 (organic anion transporting polypeptide 1B1) (human, UniProt Q9Y6L6, N-glycosylation sites N134, N516).
T1 construct: wild-type human OATP1B1, gene codon-optimised for human cells (GenScript), in pcDNA5 with a cleavable C-terminal YFP-1D4 tag; The tag was removed with 3C protease after nanodisc reconstitution and before Fab18 was added for cryo-EM; also called SLCO1B1; not shown: YFP, C-terminal, cleaved; 1D4, C-terminal, cleaved
T1 sequence (Q9Y6L6 whole entry): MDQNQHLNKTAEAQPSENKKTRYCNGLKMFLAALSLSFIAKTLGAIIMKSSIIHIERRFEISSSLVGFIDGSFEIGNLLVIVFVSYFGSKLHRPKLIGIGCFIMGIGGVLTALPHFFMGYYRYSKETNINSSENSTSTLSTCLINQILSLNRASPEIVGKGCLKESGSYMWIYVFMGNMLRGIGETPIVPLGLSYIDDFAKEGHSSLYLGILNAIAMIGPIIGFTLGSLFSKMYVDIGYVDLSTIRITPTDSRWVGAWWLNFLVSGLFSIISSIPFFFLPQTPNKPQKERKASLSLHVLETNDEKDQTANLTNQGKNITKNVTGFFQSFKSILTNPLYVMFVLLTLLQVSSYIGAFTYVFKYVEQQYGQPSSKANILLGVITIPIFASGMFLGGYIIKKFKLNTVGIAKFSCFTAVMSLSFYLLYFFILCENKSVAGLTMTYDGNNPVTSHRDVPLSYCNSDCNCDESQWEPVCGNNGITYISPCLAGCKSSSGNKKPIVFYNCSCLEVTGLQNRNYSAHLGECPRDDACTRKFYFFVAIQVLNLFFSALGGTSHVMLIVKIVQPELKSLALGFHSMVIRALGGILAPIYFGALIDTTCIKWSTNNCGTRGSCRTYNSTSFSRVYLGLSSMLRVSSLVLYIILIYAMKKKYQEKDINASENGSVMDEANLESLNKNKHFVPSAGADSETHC
As to the kind of experiment: cryo-EM structure; OATP1B1 in lipid nanodiscs (MSP1D1, brain polar lipids with cholesterol), premixed with 1:1.75 molar excess Fab18, SEC in HBS (25 mM HEPES pH 7.4, 150 mM NaCl), with 0.065 mM E1S. Particulars: both partners purified.

Assay [2] concerns the target T2, Human OATP1B3 (organic anion transporting polypeptide 1B3) (human, UniProt Q9NPD5, N-glycosylation sites N134, N516).
T2 construct: wild-type human OATP1B3, gene codon-optimised for human cells (GenScript), in pcDNA5 with a cleavable C-terminal YFP-1D4 tag; also called SLCO1B3; not shown: YFP, C-terminal, cleaved; 1D4, C-terminal, cleaved
As to the kind of experiment: cryo-EM structure; OATP1B3 in lipid nanodiscs (MSP1D1, brain polar lipids with cholesterol), premixed with Fab19 at a molar ratio of 1:1, SEC in HBS (25 mM HEPES pH 7.4, 150 mM NaCl), with 0.05 mM atazanavir. As to conditions: both partners purified.

T2 sequence (Q9NPD5 whole entry): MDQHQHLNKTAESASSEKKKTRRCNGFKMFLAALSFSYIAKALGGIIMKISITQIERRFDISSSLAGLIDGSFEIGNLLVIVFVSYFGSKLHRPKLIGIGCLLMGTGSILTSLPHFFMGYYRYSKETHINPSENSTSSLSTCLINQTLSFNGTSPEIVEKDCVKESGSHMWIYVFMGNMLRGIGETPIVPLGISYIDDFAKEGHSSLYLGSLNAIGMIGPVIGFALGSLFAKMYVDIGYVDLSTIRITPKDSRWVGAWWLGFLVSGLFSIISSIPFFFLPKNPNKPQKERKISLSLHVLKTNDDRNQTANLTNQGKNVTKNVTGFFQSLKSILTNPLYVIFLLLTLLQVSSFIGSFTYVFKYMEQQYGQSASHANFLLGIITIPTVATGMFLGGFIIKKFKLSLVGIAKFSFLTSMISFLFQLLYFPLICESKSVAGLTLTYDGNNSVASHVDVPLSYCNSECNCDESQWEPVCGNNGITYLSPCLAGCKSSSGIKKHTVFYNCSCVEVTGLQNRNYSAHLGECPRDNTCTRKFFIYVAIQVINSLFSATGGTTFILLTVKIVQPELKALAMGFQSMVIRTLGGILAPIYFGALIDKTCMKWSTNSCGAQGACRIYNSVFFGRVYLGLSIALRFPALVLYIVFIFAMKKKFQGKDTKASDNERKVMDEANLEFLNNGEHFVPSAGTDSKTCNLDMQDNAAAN

B1: Fab18 (Fab, V domains shown)
VH: EVQLVESGGGLVQPGGSLRLSCAASGFNFSSSSIHWVRQAPGKGLEWVASISSSSGSTSYADSVKGRFTISADTSKNTAYLQMNSLRAEDTAVYYCARYGWGGPWYYWLRDSRSGIDYWGQGTLVTVSS
VL: DIQMTQSPSSLSASVGDRVTITCRASQSVSSAVAWYQQKPGKAPKLLIYSASSLYSGVPSRFSGSRSGTDFTLTISSLQPEDFATYYCQQSSSSLITFGQGTKVEIK
notes: heavy chain (HC) of Fab18 in PDB 8PHW; selected by phage display from synthetic Fab library E against OATP1B3; light chain (LC) of Fab18 in PDB 8PHW; also called synthetic Fab fragment Fab18; source: E. coli C43 (Pro+), pRH2.2, purified (Protein L, Resource S)
On to B1, for which the binding result in assay [1] was “binds”.

B2: Fab19 (Fab, V domains shown)
VH: EVQLVESGGGLVQPGGSLRLSCAASGFNFSSSSIHWVRQAPGKGLEWVASISSSSGSTSYADSVKGRFTISADTSKNTAYLQMNSLRAEDTAVYYCARYYIKRWWLMSWEDYSMGLDYWGQGTLVTVSS
VL: B1 VL
notes: heavy chain (HC) of Fab19 in PDB 8PG0; selected by phage display from synthetic Fab library E against OATP1B3; light chain (LC) of Fab19 in PDB 8PG0; also called synthetic Fab fragment Fab19; source: E. coli C43 (Pro+), pRH2.2, purified (Protein L, Resource S)
Take B2: the binding result in assay [2] is “binds”.
